The source of these data is PMC8972799.

The target in the assay is T1, D-alanyl carrier protein ligase DltA from Staphylococcus aureus Mu50 (S. aureus) (UniProt P68876).
T1 sequence: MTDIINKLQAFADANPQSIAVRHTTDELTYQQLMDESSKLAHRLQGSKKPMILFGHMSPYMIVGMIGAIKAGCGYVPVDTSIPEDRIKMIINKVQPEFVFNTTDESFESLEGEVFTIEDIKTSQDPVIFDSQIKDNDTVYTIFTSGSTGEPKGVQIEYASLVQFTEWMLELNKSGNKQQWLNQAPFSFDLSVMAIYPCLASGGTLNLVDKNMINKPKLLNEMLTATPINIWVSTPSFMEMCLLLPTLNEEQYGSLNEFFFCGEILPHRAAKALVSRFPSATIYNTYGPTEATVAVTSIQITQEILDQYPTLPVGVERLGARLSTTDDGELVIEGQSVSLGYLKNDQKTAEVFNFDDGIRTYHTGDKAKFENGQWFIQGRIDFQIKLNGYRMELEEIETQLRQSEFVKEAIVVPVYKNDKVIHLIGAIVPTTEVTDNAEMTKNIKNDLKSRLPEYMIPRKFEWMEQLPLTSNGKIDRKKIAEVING

B1: wild-type S. aureus DltC, Ppant-modified (natural protein)
chain: MEFREQVLNLLAEVAENDIVKENPDVEIFEEGIIDSFQTVGLLLEIQNKLDIEVSIMDFDRDEWATPNKIVEALEELR
modifications: 4'-phosphopantetheinyl (Ppant) group at Ser36
For the molecule B1, the adenylation activity of SaDltA (5 µM; initial rate, pyrophosphate-detection assay, 5 mM D-alanine) in the presence of 300 µM wild-type SaDltC, against SaDltA alone was found to be 7.2 fold.
